Laboratory results as given in the Immune Epitope Database (IEDB).

Tests used:
Experiment in all cases: IEDB peptide-MHC binding, purified MHC/competitive/radioactivity; filed as Kd, often an IC50 or EC50 that approximates it; ≥ and ≤ were set here for values at or beyond the usual limits of such assays
HLA-A*31:01 = molecular target: HLA-A*31:01
HLA-A*11:01 = molecular target: HLA-A*11:01
HLA-A*68:01 = molecular target: HLA-A*68:01
HLA-A*33:01 = molecular target: HLA-A*33:01
HLA-A*03:01 = molecular target: HLA-A*03:01
HLA-A*02:03 = conditions: source organism: Dengue virus 4 Philippines/H241/1956
[1] = source organism: Mammarenavirus whitewaterense
[2] = source organism: SARS coronavirus Tor2
[3] = source organism: Vaccinia virus WR
[4] = source organism: Mammarenavirus machupoense
[5] = source organism: Lassa virus Josiah
[6] = source organism: Mammarenavirus juninense
[7] = source organism: Vaccinia virus

## SFKDQSKYCH
HLA-A*31:01; [1]
  Kd: 1160 nM
HLA-A*11:01; [1]
  Kd: ≥ 69700 nM
HLA-A*68:01; [1]
  Kd: ≥ 70100 nM
HLA-A*33:01; [1]
  Kd: 8630 nM
HLA-A*03:01; [1]
  Kd: ≥ 70000 nM

## SFYVYANGGR
HLA-A*31:01; [2]
  Kd: 89.2 nM
HLA-A*11:01; [2]
  Kd: 1170 nM
HLA-A*68:01; [2]
  Kd: 789 nM
HLA-A*33:01; [2]
  Kd: 182 nM
HLA-A*03:01; [2]
  Kd: 1650 nM

## SLYMAISPK
HLA-A*31:01; [2]
  Kd: 1010 nM
HLA-A*11:01; [2]
  Kd: 21.9 nM
HLA-A*68:01; [2]
  Kd: 2190 nM
HLA-A*33:01; [2]
  Kd: ≥ 49500 nM
HLA-A*03:01; [2]
  Kd: 13.6 nM

## SMRYQSLIPR
HLA-A*31:01; [3]
  Kd: 0.363 nM
HLA-A*11:01; [3]
  Kd: 1.01 nM
HLA-A*68:01; [3]
  Kd: 20.2 nM
HLA-A*33:01; [3]
  Kd: 0.614 nM
HLA-A*03:01; [3]
  Kd: 1.35 nM

## SSVSVLMKEH
HLA-A*31:01; [4]
  Kd: 11700 nM
HLA-A*11:01; [4]
  Kd: ≥ 31000 nM
HLA-A*68:01; [4]
  Kd: 8860 nM
HLA-A*33:01; [4]
  Kd: ≥ 70000 nM
HLA-A*03:01; [4]
  Kd: 17700 nM

## SVVQKPVDVK
HLA-A*31:01; [2]
  Kd: 7980 nM
HLA-A*11:01; [2]
  Kd: 53.7 nM
HLA-A*68:01; [2]
  Kd: 857 nM
HLA-A*33:01; [2]
  Kd: ≥ 67100 nM
HLA-A*03:01; [2]
  Kd: 61.6 nM

## TIANSNIIK
HLA-A*31:01; [3]
  Kd: 8980 nM
HLA-A*11:01; [3]
  Kd: 36.8 nM
HLA-A*68:01; [3]
  Kd: 73.1 nM
HLA-A*33:01; [3]
  Kd: 10900 nM
HLA-A*03:01; [3]
  Kd: 655 nM

## TLATGPVLTL
HLA-A*02:03
  Kd: 28.3 nM

## TLLPLTQYNR
HLA-A*31:01; [2]
  Kd: 1340 nM
HLA-A*11:01; [2]
  Kd: 8140 nM
HLA-A*68:01; [2]
  Kd: 3410 nM
HLA-A*33:01; [2]
  Kd: 4590 nM
HLA-A*03:01; [2]
  Kd: 7220 nM

## TSCSKNEAEK
HLA-A*31:01; [3]
  Kd: 5740 nM
HLA-A*11:01; [3]
  Kd: 165 nM
HLA-A*68:01; [3]
  Kd: 385 nM
HLA-A*33:01; [3]
  Kd: ≥ 70000 nM
HLA-A*03:01; [3]
  Kd: 3800 nM

## TSSTCMMCYK
HLA-A*31:01; [2]
  Kd: 85.1 nM
HLA-A*11:01; [2]
  Kd: 1.17 nM
HLA-A*68:01; [2]
  Kd: 4.93 nM
HLA-A*33:01; [2]
  Kd: 441 nM
HLA-A*03:01; [2]
  Kd: 22.9 nM

## TTGRTSLPK
HLA-A*31:01; [5]
  Kd: 18000 nM
HLA-A*11:01; [5]
  Kd: 1760 nM
HLA-A*68:01; [5]
  Kd: 13300 nM
HLA-A*33:01; [5]
  Kd: 14500 nM
HLA-A*03:01; [5]
  Kd: 5240 nM

## TVHKLTQDEK
HLA-A*31:01; [3]
  Kd: ≥ 70000 nM
HLA-A*11:01; [3]
  Kd: 80.5 nM
HLA-A*68:01; [3]
  Kd: 220 nM
HLA-A*33:01; [3]
  Kd: ≥ 70000 nM
HLA-A*03:01; [3]
  Kd: 12300 nM

## TVVRDFENY
HLA-A*31:01; [3]
  Kd: ≥ 77900 nM
HLA-A*11:01; [3]
  Kd: 1210 nM
HLA-A*68:01; [3]
  Kd: 1100 nM
HLA-A*33:01; [3]
  Kd: ≥ 77700 nM
HLA-A*03:01; [3]
  Kd: ≥ 63000 nM

## VALYRRIQRR
HLA-A*31:01; [3]
  Kd: 562 nM
HLA-A*11:01; [3]
  Kd: ≥ 48200 nM
HLA-A*68:01; [3]
  Kd: ≥ 30500 nM
HLA-A*33:01; [3]
  Kd: 1340 nM
HLA-A*03:01; [3]
  Kd: ≥ 70100 nM

## VFFTASLFLH
HLA-A*31:01; [6]
  Kd: 318 nM
HLA-A*11:01; [6]
  Kd: 10100 nM
HLA-A*68:01; [6]
  Kd: ≥ 22700 nM
HLA-A*33:01; [6]
  Kd: 164 nM
HLA-A*03:01; [6]
  Kd: 10400 nM

## VIDKAKVMGR
HLA-A*31:01; [3]
  Kd: 130 nM
HLA-A*11:01; [3]
  Kd: 488 nM
HLA-A*68:01; [3]
  Kd: 334 nM
HLA-A*33:01; [3]
  Kd: 2650 nM
HLA-A*03:01; [3]
  Kd: 805 nM

## VMNIERQDY
HLA-A*31:01; [3]
  Kd: 3880 nM
HLA-A*11:01; [3]
  Kd: 6110 nM
HLA-A*68:01; [3]
  Kd: 53.2 nM
HLA-A*33:01; [3]
  Kd: 747 nM
HLA-A*03:01; [3]
  Kd: ≥ 61100 nM

## VTSSGTIYK
HLA-A*31:01; [7]
  Kd: 0.577 nM
HLA-A*11:01; [7]
  Kd: 0.595 nM
HLA-A*68:01; [7]
  Kd: 16.8 nM
HLA-A*33:01; [7]
  Kd: 10.2 nM
HLA-A*03:01; [7]
  Kd: 8.08 nM

## VTTKDYFSFK
HLA-A*31:01; [3]
  Kd: 561 nM
HLA-A*11:01; [3]
  Kd: 11 nM
HLA-A*68:01; [3]
  Kd: 155 nM
HLA-A*33:01; [3]
  Kd: 7280 nM
HLA-A*03:01; [3]
  Kd: 26.1 nM

## VVYRAFDIY
HLA-A*31:01; [2]
  Kd: 7860 nM
HLA-A*11:01; [2]
  Kd: 149 nM
HLA-A*68:01; [2]
  Kd: 3340 nM
HLA-A*33:01; [2]
  Kd: ≥ 25100 nM
HLA-A*03:01; [2]
  Kd: 163 nM

## YALINLVQYR
HLA-A*31:01; [3]
  Kd: 570 nM
HLA-A*11:01; [3]
  Kd: 6860 nM
HLA-A*68:01; [3]
  Kd: 21.8 nM
HLA-A*33:01; [3]
  Kd: 1270 nM
HLA-A*03:01; [3]
  Kd: 11700 nM

## YIAVANCVR
HLA-A*31:01; [3]
  Kd: 14.2 nM
HLA-A*11:01; [3]
  Kd: 13900 nM
HLA-A*68:01; [3]
  Kd: 6.73 nM
HLA-A*33:01; [3]
  Kd: 284 nM
HLA-A*03:01; [3]
  Kd: ≥ 78000 nM

## YIYSEIKQGR
HLA-A*31:01; [3]
  Kd: 16.5 nM
HLA-A*11:01; [3]
  Kd: 11600 nM
HLA-A*68:01; [3]
  Kd: 6.39 nM
HLA-A*33:01; [3]
  Kd: 853 nM
HLA-A*03:01; [3]
  Kd: 1650 nM

## YLSDSDNIK
HLA-A*31:01; [3]
  Kd: ≥ 77900 nM
HLA-A*11:01; [3]
  Kd: 8570 nM
HLA-A*68:01; [3]
  Kd: 1120 nM
HLA-A*33:01; [3]
  Kd: ≥ 50700 nM
HLA-A*03:01; [3]
  Kd: 2600 nM

## YSGLTPEQK
HLA-A*31:01; [3]
  Kd: 16200 nM
HLA-A*11:01; [3]
  Kd: 497 nM
HLA-A*68:01; [3]
  Kd: 494 nM
HLA-A*33:01; [3]
  Kd: ≥ 53000 nM
HLA-A*03:01; [3]
  Kd: 18800 nM

## YTYDRVDIYY
HLA-A*31:01; [3]
  Kd: 11000 nM
HLA-A*11:01; [3]
  Kd: 2.41 nM
HLA-A*68:01; [3]
  Kd: 0.96 nM
HLA-A*33:01; [3]
  Kd: 1170 nM
HLA-A*03:01; [3]
  Kd: 97.4 nM
